Entries after “also recorded” stand apart in the source; their conditions may differ.
What was measured:
[1] = tested on: bone marrow derived EPOCs; assay: Alamar blue based proliferation assay; type: cell-based, mouse
Procedure: Mouse bone marrow derived late-stage endothelial progenitor outgrowth cells (EPOCs) were obtained from BioChain (7030031) and cultured in growth medium (BioChain Z7030035) as described previously (Xie et al. 2014). Endothelial cell migration assay was set up in Trans well-24 well plates with 8-um pore filters. Briefly, 1×10^5 cells/well after 1-hour serum starvation were seeded in the upper chamber, then incubated with conditioned medium from osteoblasts and control in the lower chambers for a further 3 h. The cells in the upper surface of each filter were removed with cotton swabs. The cells that migrated into the lower surface were fixed with 4% PFA for 30 min and then stained with crystal violet. The cell numbers were quantified by counting a centered microscope field per each filter (5 wells for each condition). […] The width of the wound area was quantitatively evaluated using ImageJ (see website at rsb.info.uih.gov/ij/download.html). […] At 0, 24, 48 hours after seeding, cells were incubated with 10-fold diluted Alamar Blue solution (Thermo Fisher) and the supernatant was evaluated with a spectrophotometer (Thermo) (5 wells for each condition). […] Alter 5 hours incubation at 37° C., the number of tube branches each well was observed and quantified by counting four random fields per well with microscopy (5 wells for each condition).

[2] = tested on: CD31^hiEMCN^hi endothelium; assay: Flow cytometry of skeletal CD31hiEMCNhi endothelium in femurs after IV injection; type: in vivo, mouse; conditions: 8-week-old B6 mice, twice weekly IV 1 mg/kg, 21 days, femur; 1 mg/kg
Procedure: Femur and tibia were dissected from mutant mice and control groups after removing surrounding connective tissues. The metaphysis region and diaphysis regions of bone was crushed in Hanks Balanced Salt Solution (Life Technologies) containing 10 mM HOPES (pH 7.2) (CellGro) and enzymatically digested with 2.5 mg/mL Collagenase A (Roche) and 1 unit/mL Dispase II (Roche) for 15 minutes at 37° C. under gentle agitation. The resulting cell suspensions were filtered (40 μm), washed using PBS (pH 7.2) containing 0.5% BSA (Fraction V) and 2 mM EDTA. After washing, equal numbers of cells per mouse were blocked with Purified Rat Anti-Mouse CD16/CD32 (BD Biosciences) for 30 min on ice, then stained with APC-conjugated EMCN antibody (ebioscience 50-5851-80), PE-conjugated CD31 (ebioscience 12-0311-81). FITC-conjugated CD45 (Tonbo 35-0451), APC/Cy7-conjugated Ter119 (Biolegend 116223) and PerCP-Cy5.5-conjugated CD146 (BD Biosciences 562231) for 45 min on ice. After washing, cells were resuspended in PBS (pH 7.2) with 2 mM EDTA and 1 μg/mL 4-6,Diamidino-2-Phenylindole (DAPI) (live/dead exclusion) for analysis on an LSRII flow cytometer system (BD Biosciences) cytometer and analyzed using FlowJo software (TreeStar). Cell sorting was performed with a FACS Aria II SORP cell sorter (Becton Dickinson) at Weill Cornell Medical College, with exclusion of DAPI^+ cells and doublets. […]

[3] = tested on: murine ovariectomy (OVX) model of postmenopausal osteoporosis; assay: Ovariectomy (OVX) induced bone loss, prophylactic model; type: in vivo, mouse
Procedure: Micro-CT (μCT) analysis was conducted on a Scanco Medical μCT 35 system at the Citigroup Biomedical Imaging Core using the previously described parameters. (Shim et al. 2013). μCT analysis was performed by an investigator blinded to the genotypes of the animals under analysis.
For histomorphometry, mice were injected with calcein (25 mg/kg, Sigma), and undecalcified sections of the lumbar vertebrae were stained using von Kossa and TRAP as described by Fukuda et al. (2013). Static and dynamic histomorphometric analysis was performed with using the Osteomeasure Analysis System (Osteometrics) following standard nomenclature as described (Dempster et al. 2013). Bone volume/total volume (BV/TV), bone formation rate/bone surface (BFR/BS, μm^3 […] yr^−1), mineral apposition rate (MM, um Day^−1), osteoblast surface/bone surface (Ob.S/BS, %) and osteoclast number/bone perimeter (No. OC/Bpm) were analyzed.
For the prophylactic model, 12-week-old female mice (JAX) were anesthetized and bilaterally ovariectomized or sham operated. Ovariectomized mice were given twice weekly intravenous injections of 1 mg per kg body weight of SLITS or vehicle or daily subcutaneous (sc) injections of 80 ug/kg PTH (1-34) for 6 weeks starting 2 weeks after ovariectomy. […] All mice were then randomly assigned to one of four groups: Sham, OVX+vehicle, OVX+SLITS and OVX+PTH. Three days after the last injection, all of the mice were euthanized and subjected to bone analysis as described earlier.

[4] = tested on: human mesenchymal stromal cells; assay: ALP activity assay after 6 days of osteogenic culture; type: cell-based; conditions: different doses
Procedure: Primary calvarial osteoblasts were isolated from five-day-old mice by triple collagenase/dispase II digestion. Cells were cultured in α-MEM medium (Gibco) containing 10% FBS, 2 mM L-glutamine, 1% penicillin/streptomycin, 1% Hepes, and 1% nonessential amino acids and differentiated with ascorbic acid and β-glycerophosphate. Conditioned medium was collected from culture of primary osteoblasts and stocked at −80° C. hMSCs were cultured and differentiated into osteoblasts using a commercial kit (Cyagen). All cells were routinely tested to be mycoplasma negative.
For staining of extracellular matrix mineralization, cells were fixed with 10% neutral buffered formalin and stained with alizarin red. Mineralization activity was measured by colorimetric analysis. For alkaline phosphatase (ALP) activity, osteoblasts were fixed with 10% neutral formalin buffer and stained with the solution containing Fast Blue and Naphthol (Sigma-Aldrich). Alternatively, osteoblasts were incubated with 10-fold diluted Alamar Blue solution, washed, and incubated with a solution containing 6.5 mM Na2CO3, 18.5 mM NaHCO3, 2 mM MgCl2, and phosphatase substrate (Sigma-Aldrich). ALP activity was measured by a spectrophotometer (Thermo).

[5] = tested on: bone marrow endothelial progenitor outgrowth cells (EPOCs); assay: Matrigel tube formation assay; type: cell-based, mouse; conditions: for tube formation (tube branch numbers): EPOCs on Matrigel
Procedure: Mouse bone marrow derived late-stage endothelial progenitor outgrowth cells (EPOCs) were obtained from BioChain (7030031) and cultured in growth medium (BioChain Z7030035) as described previously (Xie et al. 2014). Endothelial cell migration assay was set up in Trans well-24 well plates with 8-um pore filters. Briefly, 1×10^5 cells/well after 1-hour serum starvation were seeded in the upper chamber, then incubated with conditioned medium from osteoblasts and control in the lower chambers for a further 3 h. The cells in the upper surface of each filter were removed with cotton swabs. The cells that migrated into the lower surface were fixed with 4% PFA for 30 min and then stained with crystal violet. The cell numbers were quantified by counting a centered microscope field per each filter (5 wells for each condition). Endothelial cell wound healing assays were conducted in 12-well plates precoated with gelatin (Stemcell Technologies). 3×10^5 cells/well were plated overnight and stimulated with a wound in the form of a single linear scratch made with a yellow pipette tip. After gently washing the well twice, cells were cultured in medium with SLIT3 or vehicle. At 6 and 12 hours after injury, cells were stained by 0.5% crystal violet and photographed. The width of the wound area was quantitatively evaluated using ImageJ (see website at rsb.info.uih.gov/ij/download.html). Endothelial cell proliferation assays were conducted in 96-well plates pre-coated with gelatin (Stemcell Technologies). EPOCs (3×10^4 cells/well) were seeded in the medium with a serial dilution of SLIT3 protein or vehicle in plates. At 0, 24, 48 hours after seeding, cells were incubated with 10-fold diluted Alamar Blue solution (Thermo Fisher) and the supernatant was evaluated with a spectrophotometer (Thermo) (5 wells for each condition). Endothelial cell tube formation assay was conducted in 96-well plates pre-coated with Matrigel (BD). After 1 h serum starvation, EPOCs (3×10^4 cells/well) were seeded in conditioned medium dilution or control medium on polymerized Matrigel in plates. Alter 5 hours incubation at 37° C., the number of tube branches each well was observed and quantified by counting four random fields per well with microscopy (5 wells for each condition).

[6] = treatment initiated two weeks after OVX

B1: SLIT3: SLIT3 recombinant protein (R&D); secreted ligand of ROBO receptors (protein, UniProt O75094 34-1523, looked up)
Slit homolog 3 protein: CPTKCTCSAASVDCHGLGLRAVPRGIPRNAERLDLDRNNITRITKMDFAGLKNLRVLHLEDNQVSVIERGAFQDLKQLERLRLNKNKLQVLPELLFQSTPKLTRLDLSENQIQGIPRKAFRGITDVKNLQLDNNHISCIEDGAFRALRDLEILTLNNNNISRILVTSFNHMPKIRTLRLHSNHLYCDCHLAWLSDWLRQRRTVGQFTLCMAPVHLRGFNVADVQKKEYVCPAPHSEPPSCNANSISCPSPCTCSNNIVDCRGKGLMEIPANLPEGIVEIRLEQNSIKAIPAGAFTQYKKLKRIDISKNQISDIAPDAFQGLKSLTSLVLYGNKITEIVKGLFDGLVSLQLLLLNANKINCLRVNTFQDLQNLNLLSLYDNKLQTISKGLFAPLQSIQTLHLAQNPFVCDCHLKWLADYLQDNPIETSGARCSSPRRLANKRISQIKSKKFRCSGSEDYRSRFSSECFMDLVCPEKCRCEGTIVDCSNQKLVRIPSHLPEYVTDLRLNDNEVSVLEATGIFKKLPNLRKINLSNNKIKEVREGAFDGAASVQELMLTGNQLETVHGRVFRGLSGLKTLMLRSNLIGCVSNDTFAGLSSVRLLSLYDNRITTITPGAFTTLVSLSTINLLSNPFNCNCHLAWLGKWLRKRRIVSGNPRCQKPFFLKEIPIQDVAIQDFTCDGNEESSCQLSPRCPEQCTCMETVVRCSNKGLRALPRGMPKDVTELYLEGNHLTAVPRELSALRHLTLIDLSNNSISMLTNYTFSNMSHLSTLILSYNRLRCIPVHAFNGLRSLRVLTLHGNDISSVPEGSFNDLTSLSHLALGTNPLHCDCSLRWLSEWVKAGYKEPGIARCSSPEPMADRLLLTTPTHRFQCKGPVDINIVAKCNACLSSPCKNNGTCTQDPVELYRCACPYSYKGKDCTVPINTCIQNPCQHGGTCHLSDSHKDGFSCSCPLGFEGQRCEINPDDCEDNDCENNATCVDGINNYVCICPPNYTGELCDEVIDHCVPELNLCQHEAKCIPLDKGFSCECVPGYSGKLCETDNDDCVAHKCRHGAQCVDTINGYTCTCPQGFSGPFCEHPPPMVLLQTSPCDQYECQNGAQCIVVQQEPTCRCPPGFAGPRCEKLITVNFVGKDSYVELASAKVRPQANISLQVATDKDNGILLYKGDNDPLALELYQGHVRLVYDSLSSPPTTVYSVETVNDGQFHSVELVTLNQTLNLVVDKGTPKSLGKLQKQPAVGINSPLYLGGIPTSTGLSALRQGTDRPLGGFHGCIHEVRINNELQDFKALPPQSLGVSPGCKSCTVCKHGLCRSVEKDSVVCECRPGWTGPLCDQEARDPCLGHRCHHGKCVATGTSYMCKCAEGYGGDLCDNKNDSANACSAFKCHHGQCHISDQGEPYCLCQPGFSGEHCQQENPCLGQVVREVIRRQKGYASCATASKVPIMECRGGCGPQCCQPTRSKRRKYVFQCTDGSSFVEEVERHLECGCLACS
[1]
  proliferation: modestly increased the proliferation
[2]
  levels of skeletal CD31hiEMCNhi endothelium in vivo: increased levels; also recorded: induces production
[3]; IV twice weekly initiated two weeks after OVX
  OVX-induced bone loss (micro-CT): significantly countered OVX-induced bone loss; also recorded: comparable to the effects of PTH treatment; also recorded: preventive effects
[3]; L3 vertebrae
  endosteal CD31hiEMCNhi endothelium after OVX: reversed the attenuation
  endosteal bone formation: rescued
[3]; treatment for six weeks in vivo
  amounts of CD31hiEMCNhi vasculature in vivo: increase amounts
[3]; [6]
  cortical thickness: increased
  trabecular BV/TV: increased
[4]
  osteoblast activation / differentiation (ALP activity): did not enhance osteoblast activation; also recorded: does not directly regulate osteoblast differentiation or activity
[5]
  tube formation (tube branch numbers): enhanced
[5]; listed as Slit3
  tube formation (tube branch numbers): increases with increased Slit3
[5]; EPOCs transduced with Robo1 shRNA
  tube formation capacity in response to ligand after Robo1 knockdown: impaired their response
[5]; EPOCs transduced with YAP shRNA
  ability to induce tube formation after shRNA-mediated knockdown of YAP: significantly reduced the ability
